Laboratory results: patent publication EP4707292A2 (The University of North Carolina at Chapel Hill, dated 2026)

B1: Hemopexin (other)
chain: TPLPPTSAHGNVAEGETKPDPDVTERCSDGWSFDATTLDDNGTMLFFKGEFVWKSHKWDRELISERWKNFPSPVDAAFRQGHNSVFLIKGDKVWVYPPEKKEKGYPKLLQDEFPGIPSPLDAAVECHRGECQAEGVLFFQGDREWFWDLATGTMKERSWPAVGNCSSALRWLGRYYCFQGNQFLRFDPVRGEVPPRYPRDVRDYFMPCPGRGHGHRNGTGHGNSTHHGPEYMRCSPHLVLSALTSDNHGATYAFSGTHYWRLDTSRDGWHSWPIAHQWPQGPSAVDAAFSWEEKLYLVQGTQVYVFLTKGGYTLVSGYPKRLEKEVGTPHGIILDSVDAAFICPGSSRLHIMAGRRLWWLDLKSGAQATWTELPWPHEKVDGALCMEKSLGPNSCSANGPGLYLIHGPNLYCYSDVEKLNAAKALPQPQNVTSLLGCTH
notes: also called HPX
B2: C4b-binding protein alpha chain (other)
chain: NCGPPPTLSFAAPMDITLTETRFKTGTTLKYTCLPGYVRSHSTQTLTCNSDGEWVYNTFCIYKRCRHPGELRNGQVEIKTDLSFGSQIEFSCSEGFFLIGSTTSRCEVQDRGVGWSHPLPQCEIVKCKPPPDIRNGRHSGEENFYAYGFSVTYSCDPRFSLLGHASISCTVENETIGVWRPSPPTCEKITCRKPDVSHGEMVSGFGPIYNYKDTIVFKCQKGFVLRGSSVIHCDADSKWNPSPPACEPNSCINLPDIPHASWETYPRPTKEDVYVVGTVLRYRCHPGYKPTTDEPTTVICQKNLRWTPYQGCEALCCPEPKLNNGEITQHRKSRPANHCVYFYGDEISFSCHETSRFSAICQGDGTWSPRTPSCGDICNFPPKIAHGHYKQSSSYSFFKEEIIYECDKGYILVGQAKLSCSYSHWSAPAPQCKALCRKPELVNGRLSVDKDQYVEPENVTIQCDSGYGVVGPQSITCSGNRTWYPEVPKCEWETPEGCEQVLTGKRLMQCLPNPEDVKMALEVYKLSLEIEQLELQRDSARQSTLDKEL
notes: also called C4BPA
B3: Isoform 2 of Haptoglobin-related protein (other)
chain: MHVCVCVCVCVYMPVCVDACMCCEAGRPAFRSFLFSLCSDLGAVISLLLWGRQLFALYSGNDVTDISDDRFPKPPEIANGYVEHLFRYQCKNYYRLRTEGDGVYTLNDKKQWINKAVGDKLPECEAVCGKPKNPANPVQRILGGHLDAKGSFPWQAKMVSHHNLTTGATLINEQWLLTTAKNLFLNHSENATAKDIAPTLTLYVGKKQLVEIEKVVLHPNYHQVDIGLIKLKQKVLVNERVMPICLPSKNYAEVGRVGYVSGWGQSDNFKLTDHLKYVMLPVADQYDCITHYEGSTCPKWKAPKSPVGVQPILNEHTFCVGMSKYQEDTCYGDAGSAFAVHDLEEDTWYAAGILSFDKSCAVAEYGVYVKVTSIQHWVQKTIAEN
notes: also called HPR
B4: Apolipoprotein C-I (other)
chain: TPDVSSALDKLKEFGNTLEDKARELISRIKQSELSAKMREWFSETFQKVKEKLKIDS
notes: also called APOC1
B5: Protein fem-1 homolog A (other)
chain: MDLRTAVYNAARDGKLQLLQKLLSGRSREELDELTGEVAGGGTPLLIAARYGHLDVVEYLVDRCGASVEAGGSVHFDGETIEGAPPLWAASAAGHLDVVRSLLRRGASVNRTTRTNSTPLRAACFDGHLEVVRYLVGEHQADLEVANRHGHTCLMISCYKGHREIARYLLEQGAQVNRRSAKGNTALHDCAESGSLEILQLLLGCKARMERDGYGMTPLLAASVTGHTNIVEYLIQEQPGQEQVAGGEAQPGLPQEDPSTSQGCAQPQGAPCCSSSPEEPLNGESYESCCPTSREAAVEALELLGATYVDKKRDLLGALKHWRRAMELRHQGGEYLPKPEPPQLVLAYDYSREVNTTEELEALITDPDEMRMQALLIRERILGPSHPDTSYYIRYRGAVYADSGNFERCIRLWKYALDMQQSNLEPLSPMTASSFLSFAELFSYVLQDRAAKGSLGTQIGFADLMGVLTKGVREVERALQLPREPGDSAQFTKALAIILHLLYLLEKVECTPSQEHLKHQTVYRLLKCAPRGKNGFTPLHMAVDKDTTNVGRYPVGRFPSLHVVKVLLDCGADPDSRDFDNNTPLHIAAQNNCPAIMNALIEAGAHMDATNAFKKTAYELLDEKLLARGTMQPFNYVTLQCLAARALDKNKIPYKGFIPEDLEAFIELH
notes: also called FEM1A
B6: CD5 antigen-like (other)
chain: SPSGVRLVGGLHRCEGRVEVEQKGQWGTVCDDGWDIKDVAVLCRELGCGAASGTPSGILYEPPAEKEQKVLIQSVSCTGTEDTLAQCEQEEVYDCSHDEDAGASCENPESSFSPVPEGVRLADGPGHCKGRVEVKHQNQWYTVCQTGWSLRAAKVVCRQLGCGRAVLTQKRCNKHAYGRKPIWLSQMSCSGREATLQDCPSGPWGKNTCNHDEDTWVECEDPFDLRLVGGDNLCSGRLEVLHKGVWGSVCDDNWGEKEDQVVCKQLGCGKSLSPSFRDRKCYGPGVGRIWLDNVRCSGEEQSLEQCQHRFWGFHDCTHQEDVAVICSG
notes: also called CD5L
B7: Isoform 2 of Ig mu chain C region (other)
chain: GSASAPTLFPLVSCENSPSDTSSVAVGCLAQDFLPDSITFSWKYKNNSDISSTRGFPSVLRGGKYAATSQVLLPSKDVMQGTDEHVVCKVQHPNGNKEKNVPLPVIAELPPKVSVFVPPRDGFFGNPRKSKLICQATGFSPRQIQVSWLREGKQVGSGVTTDQVQAEAKESGPTTYKVTSTLTIKESDWLGQSMFTCRVDHRGLTFQQNASSMCVPDQDTAIRVFAIPPSFASIFLTKSTKLTCLVTDLTTYDSVTISWTRQNGEAVKTHTNISESHPNATFSAVGEASICEDDWNSGERFTCTVTHTDLPSPLKQTISRPKGVALHRPDVYLLPPAREQLNLRESATITCLVTGFSPADVFVQWMQRGQPLSPEKYVTSAPMPEPQAPGRYFAHSILTVSEEEWNTGETYTCVVAHEALPNRVTERTVDKSTEGEVSADEEGFENLWATASTFIVLFLLSLFYSTTVTLFKVK
notes: also called IGHM
B8: Ig gamma-2 chain C region (other)
chain: ASTKGPSVFPLAPCSRSTSESTAALGCLVKDYFPEPVTVSWNSGALTSGVHTFPAVLQSSGLYSLSSVVTVPSSNFGTQTYTCNVDHKPSNTKVDKTVERKCCVECPPCPAPPVAGPSVFLFPPKPKDTLMISRTPEVTCVVVDVSHEDPEVQFNWYVDGVEVHNAKTKPREEQFNSTFRVVSVLTVVHQDWLNGKEYKCKVSNKGLPAPIEKTISKTKGQPREPQVYTLPPSREEMTKNQVSLTCLVKGFYPSDISVEWESNGQPENNYKTTPPMLDSDGSFFLYSKLTVDKSRWQQGNVFSCSVMHEALHNHYTQKSLSLSPGK
notes: also called IGHG2
B9: Beta-2-glycoprotein 1 (other)
chain: GRTCPKPDDLPFSTVVPLKTFYEPGEEITYSCKPGYVSRGGMRKFICPLTGLWPINTLKCTPRVCPFAGILENGAVRYTTFEYPNTISFSCNTGFYLNGADSAKCTEEGKWSPELPVCAPIICPPPSIPTFATLRVYKPSAGNNSLYRDTAVFECLPQHAMFGNDTITCTTHGNWTKLPECREVKCPFPSRPDNGFVNYPAKPTLYYKDKATFGCHDGYSLDGPEEIECTKLGNWSAMPSCKASCKVPVKKATVVYQGERVKIQEKFKNGMLHGDKVSFFCKNKEKKCSYTEDAQCIDGTIEVPKCFKEHSSLAFWKTDASDVKPC
notes: also called APOH
B10: Glutathione peroxidase 3 (enzyme)
chain: QSRGQEKSKMDCHGGISGTIYEYGALTIDGEEYIPFKQYAGKYVLFVNVASYUGLTGQYIELNALQEELAPFGLVILGFPCNQFGKQEPGENSEILPTLKYVRPGGGFVPNFQLFEKGDVNGEKEQKFYTFLKNSCPPTSELLGTSDRLFWEPMKVHDIRWNFEKFLVGPDGIPIMRWHHRTTVSNVKMDILSYMRRQAALGVKRK
notes: also called GPX3
B11: Kininogen-1 (other)
chain: QESQSEEIDCNDKDLFKAVDAALKKYNSQNQSNNQFVLYRITEATKTVGSDTFYSFKYEIKEGDCPVQSGKTWQDCEYKDAAKAATGECTATVGKRSSTKFSVATQTCQITPAEGPVVTAQYDCLGCVHPISTQSPDLEPILRHGIQYFNNNTQHSSLFMLNEVKRAQRQVVAGLNFRITYSIVQTNCSKENFLFLTPDCKSLWNGDTGECTDNAYIDIQLRIASFSQNCDIYPGKDFVQPPTKICVGCPRDIPTNSPELEETLTHTITKLNAENNATFYFKIDNVKKARVQVVAGKKYFIDFVARETTCSKESNEELTESCETKKLGQSLDCNAEVYVVPWEKKIYPTVNCQPLGMISLMKRPPGFSPFRSSRIGEIKEETTVSPPHTSMAPAQDEERDSGKEQGHTRRHDWGHEKQRKHNLGHGHKHERDQGHGHQRGHGLGHGHEQQHGLGHGHKFKLDDDLEHQGGHVLDHGHKHKHGHGHGKHKNKGKKNGKHNGWKTEHLASSSEDSTTPSAQTQEKTEGPTPIPSLAKPGVTVTFSDFQDSDLIATMMPPISPAPIQSDDDWIPDIQIDPNGLSFNPISDFPDTTSPKCPGRPWKSVSEINPTTQMKESYYFDLTDGLS
notes: also called KNG1
B12: Ig gamma-3 chain C region (other)
chain: ASTKGPSVFPLAPCSRSTSGGTAALGCLVKDYFPEPVTVSWNSGALTSGVHTFPAVLQSSGLYSLSSVVTVPSSSLGTQTYTCNVNHKPSNTKVDKRVELKTPLGDTTHTCPRCPEPKSCDTPPPCPRCPEPKSCDTPPPCPRCPEPKSCDTPPPCPRCPAPELLGGPSVFLFPPKPKDTLMISRTPEVTCVVVDVSHEDPEVQFKWYVDGVEVHNAKTKPREEQYNSTFRVVSVLTVLHQDWLNGKEYKCKVSNKALPAPIEKTISKTKGQPREPQVYTLPPSREEMTKNQVSLTCLVKGFYPSDIAVEWESSGQPENNYNTTPPMLDSDGSFFLYSKLTVDKSRWQQGNIFSCSVMHEALHNRFTQKSLSLSPGK
notes: also called IGHG3

Key:
[1] = molecular target: T1, Adeno-associated virus 9 (AAV9) virion (adeno-associated virus 9); assay: co-IP with ADK9/LC-MS/MS, AAV9 + human serum vs control
T1 construct: Intact virion; capsid of VP1, VP2, VP3; also called AAV9/luc; AAV9 capsid

[2] = molecular target: T2, Adeno-associated virus 8 (AAV8) virion (adeno-associated virus 8); assay: co-IP/LC-MS/MS, AAV8 + human serum vs PBS control
T2 construct: Intact virion with packaged vector genome; capsid of 60 subunits (VP1, VP2, VP3, overlapping products of one cap gene); also called AAV8/luc; AAV8 capsid

Binder | fold change [1] [fold] | fold change [2] [fold]
B1 | 30.7 | 30.7
B2 | 1.53 | 1.53
B3 | 2.82 | 2.82
B4 | 2 | 2
B5 | 0.264 | 0.264
B6 | 1.23 | 1.23
B7 | 3 | 3
B8 | 5.06 | 5.06
B9 | 3.43 | 3.43
B10 | 2.74 | 2.74
B11 | 0.419 | 0.419
B12 | 6.33 | 6.33
